This is an account of results in patent US12630600B2 (MEDIMMUNE LIMITED, priority 2022, dated 2026).

One assay concerns the target human GLP-1 receptor (human, UniProt P43220). Put plainly: cell-based or functional assay.
For a further assay, the target named is human glucagon receptor (human, UniProt P47871). Description: cell-based or functional assay.

Starred links: 1 amine or outer side, 2 acyl side, 3 side chain; linkers in the order of their positions; H or OH if unused. Non-standard residues stand in square brackets, D forms with d. Groups on a side chain read outwards from the residue. No end group written: not given here. *: point of attachment. C20 diacid = O=C(O)CCCCCCCCCCCCCCCCCCC(=O)*; C18 diacid = O=C(O)CCCCCCCCCCCCCCCCC(=O)*; γGlu = O=C(O)[C@H](CCC(=O)[*:2])N[*:1]; αMeF = C[C@](N)(Cc1ccccc1)C(=O)O; AEEA = NCCOCCOCC(=O)O; Aib = CC(C)(N)C(=O)O

B1: Peptide 412 (peptide)
peptide: H[Aib]QGTFTSDVSK[αMeF]LDTK([AEEA-AEEA-γGlu-C20 diacid])RAQDFVAWLEAGG-OH
modifications: N-terminus assumed
SMILES: CC(C)C[C@H](NC(=O)[C@H](Cc1c[nH]c2ccccc12)NC(=O)[C@H](C)NC(=O)[C@@H](NC(=O)[C@H](Cc1ccccc1)NC(=O)[C@H](CC(=O)O)NC(=O)[C@H](CCC(N)=O)NC(=O)[C@H](C)NC(=O)[C@H](CCCNC(=N)N)NC(=O)[C@H](CCCCNC(=O)COCCOCCNC(=O)COCCOCCNC(=O)CC[C@H](NC(=O)CCCCCCCCCCCCCCCCCCC(=O)O)C(=O)O)NC(=O)[C@@H](NC(=O)[C@H](CC(=O)O)NC(=O)[C@H](CC(C)C)NC(=O)[C@](C)(Cc1ccccc1)NC(=O)[C@H](CCCCN)NC(=O)[C@H](CO)NC(=O)[C@@H](NC(=O)[C@H](CC(=O)O)NC(=O)[C@H](CO)NC(=O)[C@@H](NC(=O)[C@H](Cc1ccccc1)NC(=O)[C@@H](NC(=O)CNC(=O)[C@H](CCC(N)=O)NC(=O)C(C)(C)NC(=O)[C@@H](N)Cc1c[nH]cn1)[C@@H](C)O)[C@@H](C)O)C(C)C)[C@@H](C)O)C(C)C)C(=O)N[C@@H](CCC(=O)O)C(=O)N[C@@H](C)C(=O)NCC(=O)NCC(=O)O
Regarding B1, the figures for the “cAMP production EC50” value with human GLP-1 receptor and with human glucagon receptor were 0.186 nM and 0.397 nM, respectively.

B2: Peptide 414 (peptide)
peptide: H[Aib]QGTFTSDVSK[αMeF]LDKK([AEEA-AEEA-γGlu-C18 diacid])RARDFVRWLL[Aib]E-OH
modifications: N-terminus assumed
SMILES: CC(C)C[C@H](NC(=O)[C@H](Cc1c[nH]c2ccccc12)NC(=O)[C@H](CCCNC(=N)N)NC(=O)[C@@H](NC(=O)[C@H](Cc1ccccc1)NC(=O)[C@H](CC(=O)O)NC(=O)[C@H](CCCNC(=N)N)NC(=O)[C@H](C)NC(=O)[C@H](CCCNC(=N)N)NC(=O)[C@H](CCCCNC(=O)COCCOCCNC(=O)COCCOCCNC(=O)CC[C@H](NC(=O)CCCCCCCCCCCCCCCCC(=O)O)C(=O)O)NC(=O)[C@H](CCCCN)NC(=O)[C@H](CC(=O)O)NC(=O)[C@H](CC(C)C)NC(=O)[C@](C)(Cc1ccccc1)NC(=O)[C@H](CCCCN)NC(=O)[C@H](CO)NC(=O)[C@@H](NC(=O)[C@H](CC(=O)O)NC(=O)[C@H](CO)NC(=O)[C@@H](NC(=O)[C@H](Cc1ccccc1)NC(=O)[C@@H](NC(=O)CNC(=O)[C@H](CCC(N)=O)NC(=O)C(C)(C)NC(=O)[C@@H](N)Cc1c[nH]cn1)[C@@H](C)O)[C@@H](C)O)C(C)C)C(C)C)C(=O)N[C@@H](CC(C)C)C(=O)NC(C)(C)C(=O)N[C@@H](CCC(=O)O)C(=O)O
Regarding B2, the “cAMP production EC50” value with human GLP-1 receptor worked out at 0.0323 nM; with human glucagon receptor, 0.0269 nM.

B3: Peptide 408 (peptide)
peptide: H[Aib]QGTFTSDVSK[αMeF]LDTK([AEEA-AEEA-γGlu-γGlu-C20 diacid])RAQDFVRWLEA[Aib]G-OH
modifications: N-terminus assumed
SMILES: CC(C)C[C@H](NC(=O)[C@H](Cc1c[nH]c2ccccc12)NC(=O)[C@H](CCCNC(=N)N)NC(=O)[C@@H](NC(=O)[C@H](Cc1ccccc1)NC(=O)[C@H](CC(=O)O)NC(=O)[C@H](CCC(N)=O)NC(=O)[C@H](C)NC(=O)[C@H](CCCNC(=N)N)NC(=O)[C@H](CCCCNC(=O)COCCOCCNC(=O)COCCOCCNC(=O)CC[C@H](NC(=O)CC[C@H](NC(=O)CCCCCCCCCCCCCCCCCCC(=O)O)C(=O)O)C(=O)O)NC(=O)[C@@H](NC(=O)[C@H](CC(=O)O)NC(=O)[C@H](CC(C)C)NC(=O)[C@](C)(Cc1ccccc1)NC(=O)[C@H](CCCCN)NC(=O)[C@H](CO)NC(=O)[C@@H](NC(=O)[C@H](CC(=O)O)NC(=O)[C@H](CO)NC(=O)[C@@H](NC(=O)[C@H](Cc1ccccc1)NC(=O)[C@@H](NC(=O)CNC(=O)[C@H](CCC(N)=O)NC(=O)C(C)(C)NC(=O)[C@@H](N)Cc1c[nH]cn1)[C@@H](C)O)[C@@H](C)O)C(C)C)[C@@H](C)O)C(C)C)C(=O)N[C@@H](CCC(=O)O)C(=O)N[C@@H](C)C(=O)NC(C)(C)C(=O)NCC(=O)O
Consider B3, for which the entries for the “cAMP production EC50” value with human GLP-1 receptor and with human glucagon receptor were 0.37 nM and 0.828 nM, respectively.

B4: Peptide 407 (peptide)
peptide: H[Aib]QGTFTSDVSK[αMeF]LDTK([AEEA-AEEA-γGlu-C20 diacid])RAQDFVRWLEA[Aib]G-OH
modifications: N-terminus assumed
SMILES: CC(C)C[C@H](NC(=O)[C@H](Cc1c[nH]c2ccccc12)NC(=O)[C@H](CCCNC(=N)N)NC(=O)[C@@H](NC(=O)[C@H](Cc1ccccc1)NC(=O)[C@H](CC(=O)O)NC(=O)[C@H](CCC(N)=O)NC(=O)[C@H](C)NC(=O)[C@H](CCCNC(=N)N)NC(=O)[C@H](CCCCNC(=O)COCCOCCNC(=O)COCCOCCNC(=O)CC[C@H](NC(=O)CCCCCCCCCCCCCCCCCCC(=O)O)C(=O)O)NC(=O)[C@@H](NC(=O)[C@H](CC(=O)O)NC(=O)[C@H](CC(C)C)NC(=O)[C@](C)(Cc1ccccc1)NC(=O)[C@H](CCCCN)NC(=O)[C@H](CO)NC(=O)[C@@H](NC(=O)[C@H](CC(=O)O)NC(=O)[C@H](CO)NC(=O)[C@@H](NC(=O)[C@H](Cc1ccccc1)NC(=O)[C@@H](NC(=O)CNC(=O)[C@H](CCC(N)=O)NC(=O)C(C)(C)NC(=O)[C@@H](N)Cc1c[nH]cn1)[C@@H](C)O)[C@@H](C)O)C(C)C)[C@@H](C)O)C(C)C)C(=O)N[C@@H](CCC(=O)O)C(=O)N[C@@H](C)C(=O)NC(C)(C)C(=O)NCC(=O)O
As to B4, the “cAMP production EC50” value came to 0.209 nM in the assay with human GLP-1 receptor and 0.462 nM in the assay with human glucagon receptor.

B5: Peptide 410 (peptide)
peptide: H[Aib]QGTFTSDVSK[αMeF]LDTK([AEEA-AEEA-γGlu-C20 diacid])RARDFVAWLL[Aib]TE-OH
modifications: N-terminus assumed
SMILES: CC(C)C[C@H](NC(=O)[C@H](Cc1c[nH]c2ccccc12)NC(=O)[C@H](C)NC(=O)[C@@H](NC(=O)[C@H](Cc1ccccc1)NC(=O)[C@H](CC(=O)O)NC(=O)[C@H](CCCNC(=N)N)NC(=O)[C@H](C)NC(=O)[C@H](CCCNC(=N)N)NC(=O)[C@H](CCCCNC(=O)COCCOCCNC(=O)COCCOCCNC(=O)CC[C@H](NC(=O)CCCCCCCCCCCCCCCCCCC(=O)O)C(=O)O)NC(=O)[C@@H](NC(=O)[C@H](CC(=O)O)NC(=O)[C@H](CC(C)C)NC(=O)[C@](C)(Cc1ccccc1)NC(=O)[C@H](CCCCN)NC(=O)[C@H](CO)NC(=O)[C@@H](NC(=O)[C@H](CC(=O)O)NC(=O)[C@H](CO)NC(=O)[C@@H](NC(=O)[C@H](Cc1ccccc1)NC(=O)[C@@H](NC(=O)CNC(=O)[C@H](CCC(N)=O)NC(=O)C(C)(C)NC(=O)[C@@H](N)Cc1c[nH]cn1)[C@@H](C)O)[C@@H](C)O)C(C)C)[C@@H](C)O)C(C)C)C(=O)N[C@@H](CC(C)C)C(=O)NC(C)(C)C(=O)N[C@H](C(=O)N[C@@H](CCC(=O)O)C(=O)O)[C@@H](C)O
Consider B5, for which the “cAMP production EC50” value amounted to 0.078 nM in the assay with human GLP-1 receptor and 0.455 nM with human glucagon receptor.

In the case of H[Aib]QGTFTSDVSK[αMeF]LDTK([AEEA-AEEA-γGlu-γGlu-C20 diacid])RAQDFVAWLEAGG-OH [Peptide 413], the “cAMP production EC50” value turned out to be 0.406 nM with human GLP-1 receptor and 1.02 nM in the assay with human glucagon receptor.

B6: Peptide 409 (peptide)
peptide: H[Aib]QGTFTSDVSK[αMeF]LDTK([AEEA-AEEA-γGlu-C18 diacid])RARDFVAWLL[Aib]TE-OH
modifications: N-terminus assumed
SMILES: CC(C)C[C@H](NC(=O)[C@H](Cc1c[nH]c2ccccc12)NC(=O)[C@H](C)NC(=O)[C@@H](NC(=O)[C@H](Cc1ccccc1)NC(=O)[C@H](CC(=O)O)NC(=O)[C@H](CCCNC(=N)N)NC(=O)[C@H](C)NC(=O)[C@H](CCCNC(=N)N)NC(=O)[C@H](CCCCNC(=O)COCCOCCNC(=O)COCCOCCNC(=O)CC[C@H](NC(=O)CCCCCCCCCCCCCCCCC(=O)O)C(=O)O)NC(=O)[C@@H](NC(=O)[C@H](CC(=O)O)NC(=O)[C@H](CC(C)C)NC(=O)[C@](C)(Cc1ccccc1)NC(=O)[C@H](CCCCN)NC(=O)[C@H](CO)NC(=O)[C@@H](NC(=O)[C@H](CC(=O)O)NC(=O)[C@H](CO)NC(=O)[C@@H](NC(=O)[C@H](Cc1ccccc1)NC(=O)[C@@H](NC(=O)CNC(=O)[C@H](CCC(N)=O)NC(=O)C(C)(C)NC(=O)[C@@H](N)Cc1c[nH]cn1)[C@@H](C)O)[C@@H](C)O)C(C)C)[C@@H](C)O)C(C)C)C(=O)N[C@@H](CC(C)C)C(=O)NC(C)(C)C(=O)N[C@H](C(=O)N[C@@H](CCC(=O)O)C(=O)O)[C@@H](C)O
Regarding B6, the entries for the “cAMP production EC50” value with human GLP-1 receptor and in the assay with human glucagon receptor were 0.0227 nM and 0.203 nM, respectively.

B7: Peptide 411 (peptide)
peptide: H[Aib]QGTFTSDVSK[αMeF]LDTK([AEEA-AEEA-γGlu-C18 diacid])RAQDFVAWLEAGG-OH
modifications: N-terminus assumed
SMILES: CC(C)C[C@H](NC(=O)[C@H](Cc1c[nH]c2ccccc12)NC(=O)[C@H](C)NC(=O)[C@@H](NC(=O)[C@H](Cc1ccccc1)NC(=O)[C@H](CC(=O)O)NC(=O)[C@H](CCC(N)=O)NC(=O)[C@H](C)NC(=O)[C@H](CCCNC(=N)N)NC(=O)[C@H](CCCCNC(=O)COCCOCCNC(=O)COCCOCCNC(=O)CC[C@H](NC(=O)CCCCCCCCCCCCCCCCC(=O)O)C(=O)O)NC(=O)[C@@H](NC(=O)[C@H](CC(=O)O)NC(=O)[C@H](CC(C)C)NC(=O)[C@](C)(Cc1ccccc1)NC(=O)[C@H](CCCCN)NC(=O)[C@H](CO)NC(=O)[C@@H](NC(=O)[C@H](CC(=O)O)NC(=O)[C@H](CO)NC(=O)[C@@H](NC(=O)[C@H](Cc1ccccc1)NC(=O)[C@@H](NC(=O)CNC(=O)[C@H](CCC(N)=O)NC(=O)C(C)(C)NC(=O)[C@@H](N)Cc1c[nH]cn1)[C@@H](C)O)[C@@H](C)O)C(C)C)[C@@H](C)O)C(C)C)C(=O)N[C@@H](CCC(=O)O)C(=O)N[C@@H](C)C(=O)NCC(=O)NCC(=O)O
With B7, the figures for the “cAMP production EC50” value in the assay with human GLP-1 receptor and in the assay with human glucagon receptor were 0.0981 nM and 0.378 nM, respectively.
